Results as given in the supplement of paper PMC7877785.
± gives the uncertainty stated by the source.

Test: self-splicing fitness, log relative to wild type (ln ratio); higher = more splicing; Tetrahymena group I intron in knt gene, E. coli kanamycin selection, DiMSum; sequences stand for … in CUCUCU…GGAGGGAAAAGUUAUCAGGCAUGCACCUGGUAGCUAGUCUUUAAACCAAUAGAUUGCAUCGGUUUAAAAGGCAAGACCGUCAAAUUGCGGGAAAGGGGUCAACAGCCGUUCAGUACCAAGUCUCAGGGGAAACUUUGAGAUGGCCUUGCAAAGGGUAUGGUAAUAAGCUGACGGACAUGGUCCUAACCACGCAGCCAAGUCCUAAGUCAACAGAUCUUCUGUUGAUAUGGAUGCAGUUCACAGACUAAAUGUCGGUCGGGGAAGAUGUAUUCUUCUCAUAAGAUAUAGUCGGACCUCUCCUUAAUGGGAGCUAGCGGAUGAAGUGAUGCAACACUGGAGCCGCUGGGAACUAAUUUGUAUGCGAAAGUAUAUUGAUUAGUUUUGGAGUACUCGUGGUCG
Summary of the method: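 Pooled colonies went to amplicon sequencing on an Illumina HiSeq 2500 after six replicate transformations. The plates were LB agar with 100 μg/mL carbenicillin, 50 μM IPTG and 0.2% rhamnose, with or without 25 μg/mL kanamycin, incubated overnight at 37°C or 30°C. The E. coli BL21(DE3) library had all eight P1ex-region intron nucleotides randomised, the intron placed in the knt kanamycin-resistance gene on pET-22b(+). DiMSum fitness is the error-weighted combination of replicate fold changes, kanamycin against none, normalised to wild type.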

Row | Sequence | self-splicing fitness (ln) (30 °C) | self-splicing fitness (ln) (37 °C)
1 | CGCAAGCAAUAUUACGAAUA | -3.27 ± 0.21 | -2.4 ± 0.2
2 | ACCGAGCAAUAUUACGCGAA | -2.33 ± 0.32 | -3.17 ± 0.4
3 | GAACAGCAAUAUUACGGAUG | -2.79 ± 0.16 | -2.29 ± 0.14
4 | CCAAAGCAAUAUUACGCUCC | -1.01 ± 0.2 | -1.74 ± 0.36
5 | AAUGAGCAAUAUUACGGUAG | -4.54 ± 0.32 | -3.47 ± 0.24
6 | CAAUAGCAAUAUUACGCGCU | -3.61 ± 0.18 | -2.18 ± 0.18
7 | CUGCAGCAAUAUUACGUUCA | -3.81 ± 0.2 | -1.97 ± 0.15
8 | GGACAGCAAUAUUACGCCUA | -0.825 ± 0.11 | -0.478 ± 0.11
9 | GUUCAGCAAUAUUACGGCCC | -0.59 ± 0.19 | 0.24 ± 0.24
10 | GGUUAGCAAUAUUACGGUAA | -1.02 ± 0.15 | -0.716 ± 0.14
11 | CCCGAGCAAUAUUACGUGAG | -3.58 ± 0.19 | -2.77 ± 0.24
12 | UAUGAGCAAUAUUACGCUGC | -4.14 ± 0.31 | -2.78 ± 0.3
13 | UCCGAGCAAUAUUACGUAAC | – | -0.912 ± 0.35
14 | GCUCAGCAAUAUUACGGAGU | -4.36 ± 0.29 | -3.35 ± 0.32
15 | GUGAAGCAAUAUUACGGAAG | -1.94 ± 0.19 | 0.825 ± 0.21
16 | CCAUAGCAAUAUUACGGCUC | -2.85 ± 0.36 | -2.59 ± 0.45
17 | AAAUAGCAAUAUUACGGCGG | -1.48 ± 0.086 | -0.335 ± 0.1
18 | UCCAAGCAAUAUUACGUUGG | -2.99 ± 0.11 | -1.89 ± 0.14
19 | UACGAGCAAUAUUACGCCGU | -2.69 ± 0.46 | -2.21 ± 0.29
20 | UGAUAGCAAUAUUACGUUCA | -0.43 ± 0.087 | 0.075 ± 0.093
21 | CGCCAGCAAUAUUACGCCGC | -2.72 ± 0.21 | -1.39 ± 0.39
22 | CAAAAGCAAUAUUACGUGAC | -5 ± 0.36 | -2.47 ± 0.18
23 | CUAUAGCAAUAUUACGUUCA | -2.87 ± 0.24 | -2.93 ± 0.35
24 | AUUCAGCAAUAUUACGACCA | -0.206 ± 0.26 | 0.501 ± 0.29
25 | UUCAAGCAAUAUUACGACAA | 0.0996 ± 0.083 | -0.304 ± 0.085
26 | GCAAAGCAAUAUUACGCCGA | -2.04 ± 0.31 | -1.82 ± 0.21

Row | Sequence | self-splicing fitness (ln) (30 °C) | self-splicing fitness (ln) (37 °C)
27 | AACCAGCAAUAUUACGGUUA | -2.14 ± 0.099 | -0.269 ± 0.084
28 | CGGAAGCAAUAUUACGCGUA | -2.96 ± 0.29 | -2.47 ± 0.25
29 | CUCUAGCAAUAUUACGCUGU | -3.07 ± 0.31 | -3.24 ± 0.29
30 | AAAUAGCAAUAUUACGAUAA | -1.51 ± 0.12 | -0.658 ± 0.13
31 | GAACAGCAAUAUUACGGGCC | -2.22 ± 0.14 | -1.09 ± 0.17
32 | UCCCAGCAAUAUUACGCUCC | -1.78 ± 0.22 | -0.443 ± 0.3
33 | UCUAAGCAAUAUUACGUGGC | -3.09 ± 0.19 | -3.11 ± 0.34
34 | CACCAGCAAUAUUACGUUAU | -3.86 ± 0.12 | -3.32 ± 0.15
35 | GAGUAGCAAUAUUACGAUCC | -1.55 ± 0.092 | -0.509 ± 0.11
36 | CCGGAGCAAUAUUACGCUGU | -4.31 ± 0.34 | -2.4 ± 0.4
37 | UGCCAGCAAUAUUACGUAUC | -3.22 ± 0.19 | -3.05 ± 0.28
38 | AUUAAGCAAUAUUACGGUGG | -3.17 ± 0.28 | -1.94 ± 0.22
39 | GGGAAGCAAUAUUACGGUUC | -2.44 ± 0.18 | -1.03 ± 0.22
40 | GGAAAGCAAUAUUACGGGAC | -2.53 ± 0.1 | -1.18 ± 0.11
41 | AUAUAGCAAUAUUACGACGA | -1.1 ± 0.22 | -0.564 ± 0.28
42 | CGUCAGCAAUAUUACGCUGU | -4.26 ± 0.33 | -1.51 ± 0.27
43 | UCUCAGCAAUAUUACGGUCA | 0.115 ± 0.061 | 0.0673 ± 0.075
44 | GCCCAGCAAUAUUACGAACC | -1.02 ± 0.15 | 0.156 ± 0.15
45 | GCCGAGCAAUAUUACGUUGG | -3.55 ± 0.24 | -2.18 ± 0.27
46 | UAUCAGCAAUAUUACGUGAU | -3.01 ± 0.12 | -1.51 ± 0.11
47 | UAGUAGCAAUAUUACGGUUA | -0.28 ± 0.077 | 0.03 ± 0.091
48 | ACCAAGCAAUAUUACGGGUG | -1.05 ± 0.043 | -0.597 ± 0.059
49 | CAGAAGCAAUAUUACGAGUG | -1.63 ± 0.067 | -0.988 ± 0.091
50 | GGCUAGCAAUAUUACGUAGA | -0.208 ± 0.079 | -0.236 ± 0.1
51 | GGCCAGCAAUAUUACGAUUA | -3.4 ± 0.21 | -2.05 ± 0.15
52 | CAUCAGCAAUAUUACGGAGC | -3.44 ± 0.31 | -2.1 ± 0.31

Row | Sequence | self-splicing fitness (ln) (30 °C) | self-splicing fitness (ln) (37 °C)
53 | CCAUAGCAAUAUUACGCUCA | -3.11 ± 0.18 | -2.16 ± 0.25
54 | UCCUAGCAAUAUUACGUCUC | -3.82 ± 0.23 | -2.52 ± 0.21
55 | GCGGAGCAAUAUUACGGUUG | -3.64 ± 0.2 | -1.78 ± 0.18
56 | ACAAAGCAAUAUUACGCACA | -0.593 ± 0.083 | -0.0238 ± 0.099
57 | CCGUAGCAAUAUUACGAAAU | -3.61 ± 0.32 | -2.7 ± 0.34
58 | UGAGAGCAAUAUUACGAAAA | – | 0.153 ± 0.41
59 | GGAGAGCAAUAUUACGGCAU | -2.03 ± 0.22 | 0.206 ± 0.22
60 | GAGGAGCAAUAUUACGUGGU | -4.05 ± 0.34 | -2.77 ± 0.33
61 | UUGUAGCAAUAUUACGAUUU | -3.15 ± 0.25 | -1.91 ± 0.24
62 | AGCAAGCAAUAUUACGGAAG | -3.35 ± 0.25 | -2.32 ± 0.26
63 | UAGCAGCAAUAUUACGAUUA | -0.00343 ± 0.049 | -0.0327 ± 0.066
64 | AACCAGCAAUAUUACGUUGA | -1.65 ± 0.083 | -0.421 ± 0.087
65 | GCGCAGCAAUAUUACGUGGA | -1.48 ± 0.098 | -0.745 ± 0.098
66 | AUUUAGCAAUAUUACGGUCG | -1.98 ± 0.15 | -1.38 ± 0.22
67 | UCAGAGCAAUAUUACGGUAC | -2.06 ± 0.3 | –
68 | CCUGAGCAAUAUUACGUUUA | -3.15 ± 0.15 | -1.57 ± 0.17
69 | ACUGAGCAAUAUUACGUAAA | – | -2.33 ± 0.24
70 | UCACAGCAAUAUUACGAUGC | -3.33 ± 0.17 | -1.26 ± 0.13
71 | UCAGAGCAAUAUUACGUGAA | -2.01 ± 0.15 | -1.2 ± 0.21
72 | CGUGAGCAAUAUUACGGGUC | -4 ± 0.24 | -2.2 ± 0.19
73 | CUAAAGCAAUAUUACGCACU | -3.41 ± 0.2 | -2.34 ± 0.32
74 | CGGCAGCAAUAUUACGUAAU | -3.38 ± 0.18 | -1.69 ± 0.22
75 | CGAUAGCAAUAUUACGUUAA | -3.59 ± 0.21 | -1.15 ± 0.16
76 | GCAAAGCAAUAUUACGGCCA | -2.11 ± 0.24 | -0.962 ± 0.19
